According to IntAct's records for PubMed 31515488:

B1: Tuftelin-interacting protein 11 (Homo sapiens), Q9UBB9 (parent)
chain: MSLSHLYRDGEGRIDDDDDERENFEITDWDLQNEFNPNRQRHWQTKEEATYGVWAERDSDDERPSFGGKRARDYSAPVNFISAGLKKGAAEEAELEDSDDEEKPVKQDDFPKDFGPRKLKTGGNFKPSQKGFAGGTKSFMDFGSWERHTKGIGQKLLQKMGYVPGRGLGKNAQGIINPIEAKQRKGKGAVGAYGSERTTQSMQDFPVVDSEEEAEEEFQKELSQWRKDPSGSKKKPKYSYKTVEELKAKGRISKKLTAPQKELSQVKVIDMTGREQKVYYSYSQISHKHNVPDDGLPLQSQQLPQSGKEAKAPGFALPELEHNLQLLIDLTEQEIIQNDRQLQYERDMVVNLFHELEKMTEVLDHEERVISNLSKVLEMVEECERRMQPDCSNPLTLDECARIFETLQDKYYEEYRMSDRVDLAVAIVYPLMKEYFKEWDPLKDCTYGTEIISKWKSLLENDQLLSHGGQDLSADAFHRLIWEVWMPFVRNIVTQWQPRNCDPMVDFLDSWVHIIPVWILDNILDQLIFPKLQKEVENWNPLTDTVPIHSWIHPWLPLMQARLEPLYSPIRSKLSSALQKWHPSDSSAKLILQPWKDVFTPGSWEAFMVKNIVPKLGMCLGELVINPHQQHMDAFYWVIDWEGMISVSSLVGLLEKHFFPKWLQVLCSWLSNSPNYEEITKWYLGWKSMFSDQVLAHPSVKDKFNEALDIMNRAVSSNVGAYMQPGARENIAYLTHTERRKDFQYEAMQERREAENMAQRGIGVAASSVPMNFKDLIETKAEEHNIVFMPVIGKRHEGKQLYTFGRIVIYIDRGVVFVQGEKTWVPTSLQSLIDMAK
partner: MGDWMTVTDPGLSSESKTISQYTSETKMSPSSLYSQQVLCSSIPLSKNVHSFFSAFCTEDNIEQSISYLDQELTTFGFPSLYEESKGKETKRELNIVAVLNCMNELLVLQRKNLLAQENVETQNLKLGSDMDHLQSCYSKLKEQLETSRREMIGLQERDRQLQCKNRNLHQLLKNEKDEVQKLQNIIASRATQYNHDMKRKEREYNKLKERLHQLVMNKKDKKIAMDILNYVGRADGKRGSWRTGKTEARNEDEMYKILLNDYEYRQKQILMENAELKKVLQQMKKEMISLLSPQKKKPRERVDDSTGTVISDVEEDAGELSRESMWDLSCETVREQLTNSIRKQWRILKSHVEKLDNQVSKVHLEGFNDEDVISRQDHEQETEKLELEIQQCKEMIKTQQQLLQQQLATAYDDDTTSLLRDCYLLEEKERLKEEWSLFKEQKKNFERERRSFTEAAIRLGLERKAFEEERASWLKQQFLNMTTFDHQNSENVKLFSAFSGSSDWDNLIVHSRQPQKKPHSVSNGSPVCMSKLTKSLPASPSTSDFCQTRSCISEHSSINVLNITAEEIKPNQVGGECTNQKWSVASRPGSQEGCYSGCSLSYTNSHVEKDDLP
B2: Beta-taxilin (Homo sapiens), Q8N3L3 (parent)
chain: MEANHSEQLSAERQSTPPGDSSSLPSHNGLEKEDGQDSPTPVQPPEKEASVHPDISEELNRQLEDIINTYGSAASTAGKEGSARASEQPENAESPDNEDGDCEETTEEAGREPVASGEPPTVKEPVSNKEQKLEKKILKGLGKEANLLMQNLNKLQTPEEKFDFLFKKYAELLDEHRTEQKKLKLLQKKQVQIQKEKDQLQGEHSRAILARSKLESLCRELQRHNKTLKEEALQRAREEEEKRKEITSHFQSTLTDIQGQIEQQSERNMKLCQENTELAEKLKSIIDQYELREEHLDKIFKHRELQQKLVDAKLEQAQEMMKEAEERHKREKEYLLNQAAEWKLQAKVLKEQETVLQAQLTLYSGRFEEFQSTLTKSNEVFATFKQEMDKTTKKMKKLEKDTATWKARFENCNKALLDMIEEKALRAKEYECFVMKIGRLENLCRALQEERNELHKKIRDAEISEKDDQSQHNSDEEPESNVSVDQEIDAEEVNSVQTAVKNLATAFMIIHHPESTPHQSKETQPEIGSSQESADAALKEPEQPPLIPSRDSESPLPPLTPQAEAEGGSDAEPPSKASNSPAGLGAETQCEGLPVGAQADQASWKPEAEASGQAPQAPTEASLQKMEADVPAPACAAEEHVAAMVPACEPSRQPPRAAAEELPVGASAGPQPRNVADTNLEGVD
B3: Notch homolog 2 N-terminal-like protein A (Homo sapiens), Q7Z3S9 (parent)
chain: MCVTYHNGTGYCKCPEGFLGEYCQHRDPCEKNRCQNGGTCVAQAMLGKATCRCASGFTGEDCQYSTSHPCFVSRPCLNGGTCHMLSRDTYECTCQVGFTGKECQWTDACLSHPCANGSTCTTVANQFSCKCLTGFTGQKCETDVNECDIPGHCQHGGTCLNLPGSYQCQCLQGFTGQYCDSLYVPCAPSPCVNGGTCRQTGDFTFECNCLPETVRRGTELWERDREVWNGKEHDEN
partner: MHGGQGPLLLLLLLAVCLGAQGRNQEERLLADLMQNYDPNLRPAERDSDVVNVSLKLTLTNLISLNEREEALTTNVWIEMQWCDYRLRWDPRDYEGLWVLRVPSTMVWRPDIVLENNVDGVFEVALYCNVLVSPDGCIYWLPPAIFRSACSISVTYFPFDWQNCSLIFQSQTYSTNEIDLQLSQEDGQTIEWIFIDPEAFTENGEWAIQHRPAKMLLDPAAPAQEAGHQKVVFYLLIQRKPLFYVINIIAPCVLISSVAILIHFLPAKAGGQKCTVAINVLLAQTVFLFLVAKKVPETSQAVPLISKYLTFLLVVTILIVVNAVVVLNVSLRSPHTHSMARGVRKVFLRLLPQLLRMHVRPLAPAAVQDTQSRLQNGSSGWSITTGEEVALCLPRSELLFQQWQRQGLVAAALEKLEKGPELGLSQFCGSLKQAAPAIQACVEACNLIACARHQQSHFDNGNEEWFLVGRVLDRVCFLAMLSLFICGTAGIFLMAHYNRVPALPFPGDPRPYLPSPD
B4: Proto-oncogene serine/threonine-protein kinase mos (Homo sapiens), P00540 (parent)
chain: MPSPLALRPYLRSEFSPSVDARPCSSPSELPAKLLLGATLPRAPRLPRRLAWCSIDWEQVCLLQRLGAGGFGSVYKATYRGVPVAIKQVNKCTKNRLASRRSFWAELNVARLRHDNIVRVVAASTRTPAGSNSLGTIIMEFGGNVTLHQVIYGAAGHPEGDAGEPHCRTGGQLSLGKCLKYSLDVVNGLLFLHSQSIVHLDLKPANILISEQDVCKISDFGCSEKLEDLLCFQTPSYPLGGTYTHRAPELLKGEGVTPKADIYSFAITLWQMTTKQAPYSGERQHILYAVVAYDLRPSLSAAVFEDSLPGQRLGDVIQRCWRPSAAQRPSARLLLVDLTSLKAELG
partner: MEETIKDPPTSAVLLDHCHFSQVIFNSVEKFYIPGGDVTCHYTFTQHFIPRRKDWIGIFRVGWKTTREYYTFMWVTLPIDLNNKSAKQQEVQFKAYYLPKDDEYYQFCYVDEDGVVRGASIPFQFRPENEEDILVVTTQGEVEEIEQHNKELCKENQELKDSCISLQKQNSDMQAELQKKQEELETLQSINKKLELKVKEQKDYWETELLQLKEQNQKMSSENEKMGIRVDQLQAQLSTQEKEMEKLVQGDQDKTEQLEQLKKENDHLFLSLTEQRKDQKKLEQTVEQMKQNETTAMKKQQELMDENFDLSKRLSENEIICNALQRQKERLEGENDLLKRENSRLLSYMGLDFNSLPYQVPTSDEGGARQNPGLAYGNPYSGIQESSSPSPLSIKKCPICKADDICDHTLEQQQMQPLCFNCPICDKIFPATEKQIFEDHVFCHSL
B5: Tuftelin-interacting protein 11 (Homo sapiens), Q9UBB9 (parent)
chain: B1 chain
partner: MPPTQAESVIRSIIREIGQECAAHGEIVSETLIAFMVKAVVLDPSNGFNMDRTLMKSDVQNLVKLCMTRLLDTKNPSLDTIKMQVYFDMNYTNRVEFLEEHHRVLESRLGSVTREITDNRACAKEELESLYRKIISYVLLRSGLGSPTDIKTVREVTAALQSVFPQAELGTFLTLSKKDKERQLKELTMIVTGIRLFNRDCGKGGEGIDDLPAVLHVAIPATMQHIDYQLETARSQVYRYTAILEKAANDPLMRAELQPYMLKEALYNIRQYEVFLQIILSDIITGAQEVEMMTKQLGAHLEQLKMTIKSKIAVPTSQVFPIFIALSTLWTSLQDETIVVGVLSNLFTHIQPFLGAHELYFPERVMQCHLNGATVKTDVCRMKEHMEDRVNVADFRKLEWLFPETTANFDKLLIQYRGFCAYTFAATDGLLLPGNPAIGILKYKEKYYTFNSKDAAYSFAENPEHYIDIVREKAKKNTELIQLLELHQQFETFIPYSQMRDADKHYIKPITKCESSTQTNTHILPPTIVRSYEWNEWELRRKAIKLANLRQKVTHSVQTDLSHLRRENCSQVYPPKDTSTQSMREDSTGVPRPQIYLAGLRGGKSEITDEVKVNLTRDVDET

Variants of: B1
Conditions: with adip_human SSX2IP

Variant | effect of a mutation on the interaction
S688L | with no effect
R8Q | with no effect

Variants of: B2
Conditions: with cep70_human CEP70, Q8NHQ1
cep70_human CEP70, Q8NHQ1, sequence (Q8NHQ1 whole entry): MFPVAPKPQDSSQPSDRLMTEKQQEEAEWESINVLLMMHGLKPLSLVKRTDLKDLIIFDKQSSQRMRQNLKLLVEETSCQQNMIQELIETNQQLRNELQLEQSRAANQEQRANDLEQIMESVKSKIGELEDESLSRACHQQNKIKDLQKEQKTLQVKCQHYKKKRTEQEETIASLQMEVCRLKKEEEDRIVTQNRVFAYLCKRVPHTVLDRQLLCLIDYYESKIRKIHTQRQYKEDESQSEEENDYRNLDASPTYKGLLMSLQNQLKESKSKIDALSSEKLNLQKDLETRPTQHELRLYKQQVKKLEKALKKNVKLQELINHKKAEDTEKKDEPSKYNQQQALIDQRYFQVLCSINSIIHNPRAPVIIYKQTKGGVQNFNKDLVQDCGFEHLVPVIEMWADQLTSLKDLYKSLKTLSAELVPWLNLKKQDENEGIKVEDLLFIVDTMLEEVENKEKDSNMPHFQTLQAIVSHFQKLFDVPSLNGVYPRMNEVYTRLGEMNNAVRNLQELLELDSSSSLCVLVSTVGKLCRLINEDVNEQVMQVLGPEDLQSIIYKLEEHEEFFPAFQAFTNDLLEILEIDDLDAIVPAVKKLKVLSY

Variant | effect of a mutation on the interaction
T523I | with no effect
T361A | with no effect

Variants of: B2
Conditions: with exoc5_human EXOC5, O00471
exoc5_human EXOC5, O00471, sequence (O00471 whole entry): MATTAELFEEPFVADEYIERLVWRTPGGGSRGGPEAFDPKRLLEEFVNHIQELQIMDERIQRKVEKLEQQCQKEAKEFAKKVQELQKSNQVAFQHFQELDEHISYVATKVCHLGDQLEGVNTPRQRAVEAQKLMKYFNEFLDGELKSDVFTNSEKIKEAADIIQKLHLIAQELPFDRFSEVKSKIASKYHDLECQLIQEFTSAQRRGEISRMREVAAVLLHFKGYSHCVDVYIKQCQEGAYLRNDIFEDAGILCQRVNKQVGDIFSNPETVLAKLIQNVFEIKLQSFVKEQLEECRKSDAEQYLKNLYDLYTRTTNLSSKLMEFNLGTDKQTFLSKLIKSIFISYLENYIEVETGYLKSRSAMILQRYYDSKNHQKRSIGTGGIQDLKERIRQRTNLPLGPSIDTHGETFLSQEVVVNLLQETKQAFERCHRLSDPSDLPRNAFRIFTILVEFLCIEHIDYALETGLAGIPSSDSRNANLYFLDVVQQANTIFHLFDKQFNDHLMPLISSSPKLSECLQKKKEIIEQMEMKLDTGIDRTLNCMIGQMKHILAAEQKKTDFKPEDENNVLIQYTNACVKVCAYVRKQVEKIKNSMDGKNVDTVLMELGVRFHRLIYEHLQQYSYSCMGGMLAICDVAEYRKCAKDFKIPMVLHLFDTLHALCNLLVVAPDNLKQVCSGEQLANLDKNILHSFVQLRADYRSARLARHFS

Variant | effect of a mutation on the interaction
I527T | with no effect

Variants of: B2
Conditions: with mbip1_human MBIP

Variant | effect of a mutation on the interaction
I527T | with no effect

Variants of: B3
Conditions: with achg_human CHRNG

Variant | effect of a mutation on the interaction
R74Q | with no effect
A115T | with no effect

Variants of: B4
Conditions: with caco2_human CALCOCO2, Q13137

Variant | effect of a mutation on the interaction
A105S | with no effect
A123T | disrupting interaction strength

Variants of: B5
Conditions: with cf206_human CFAP206, Q8IYR0

Variant | effect of a mutation on the interaction
R8Q | with no effect
S688L | with no effect
